Source: US20140056907A1 (Regeneron, published 2014)
Substitutions are numbered along the chain they refer to. Names and notes keep the numbering of the source.

T1: human ASIC1 (human, UniProt P78348 1-528)
T1 sequence: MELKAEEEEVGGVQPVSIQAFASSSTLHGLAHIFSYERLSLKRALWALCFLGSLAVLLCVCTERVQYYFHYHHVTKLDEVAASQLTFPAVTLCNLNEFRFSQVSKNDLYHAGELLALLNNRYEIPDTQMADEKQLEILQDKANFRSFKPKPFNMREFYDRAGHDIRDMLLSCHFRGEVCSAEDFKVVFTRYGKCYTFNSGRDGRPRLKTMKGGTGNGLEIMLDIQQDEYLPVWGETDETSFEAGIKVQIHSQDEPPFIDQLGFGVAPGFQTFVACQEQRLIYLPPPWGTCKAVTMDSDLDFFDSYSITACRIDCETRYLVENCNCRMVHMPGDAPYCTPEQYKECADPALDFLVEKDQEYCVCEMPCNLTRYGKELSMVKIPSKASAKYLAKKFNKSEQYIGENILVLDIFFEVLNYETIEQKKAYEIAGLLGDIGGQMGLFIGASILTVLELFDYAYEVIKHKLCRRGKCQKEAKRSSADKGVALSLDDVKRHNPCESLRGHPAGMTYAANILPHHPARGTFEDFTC

T2: mouse ASIC1a (mouse, UniProt Q6NXK8 1-526)
T2 sequence (looked up): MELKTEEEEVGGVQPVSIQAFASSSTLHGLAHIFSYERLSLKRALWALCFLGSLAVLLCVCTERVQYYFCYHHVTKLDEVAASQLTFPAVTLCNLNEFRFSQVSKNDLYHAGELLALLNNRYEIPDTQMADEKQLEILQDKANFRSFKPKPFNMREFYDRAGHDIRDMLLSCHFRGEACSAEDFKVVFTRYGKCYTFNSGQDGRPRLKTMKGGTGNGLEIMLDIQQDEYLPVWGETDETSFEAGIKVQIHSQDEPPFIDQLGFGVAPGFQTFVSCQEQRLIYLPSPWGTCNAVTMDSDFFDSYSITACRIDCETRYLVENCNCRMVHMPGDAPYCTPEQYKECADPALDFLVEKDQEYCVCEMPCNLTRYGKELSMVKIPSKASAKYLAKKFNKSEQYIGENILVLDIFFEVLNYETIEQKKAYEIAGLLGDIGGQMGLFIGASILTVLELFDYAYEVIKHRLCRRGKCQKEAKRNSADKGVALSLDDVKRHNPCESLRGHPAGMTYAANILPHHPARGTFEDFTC

T3: rat ASIC1 (rat, UniProt P55926 1-526)
T3 construct: whole, on cells; ND7 is a fusion line of mouse neuroblastoma and rat dorsal root ganglia; also called rat ASIC1a
T3 sequence (looked up): T2 sequence (looked up) with N476S

B1: H2M7103N (antibody, V domains shown)
VH: EVQLVESGGGLVQPGGSLKLSCAASGFTFSSFWMSWVRQAPGKGLEWVANIKQNGSETYYVDSVKGRFTISRDNTKNSLYLQMNSLRAEDTAIYYCARGGRIQLWSSWFDPWGQGTLVTVSS
VL: DIQMTQSPSSLSASVGDRVTITCRASQSIKNYLNWYQQKSGKAPKLLIYAASSLQSGVPSRVSGSGSGTDFTLTISSLHPEDFAAYYCQQSFSAPLTFGGGTKVEIK
notes: Chimeric: human variable, mouse constant domains; Fc isotype not spelled out; also called H2bM7103N
B2: H3M6720N (antibody, V domains shown)
VH: B1 VH
VL: AIQMTQSPSSLSASVGDRVTITCRASQGISNDLGWYQQKPGKAPKLLIYGASSLQTGVPSRFSGSGSGTDFTLTISSLQPEDFATYYCLQDFNYPYTFGQGTKLEIK
notes: Chimeric: human variable, mouse constant domains; H3M prefix marks the Fc, isotype not spelled out
B3: H4H6381P (antibody, human IgG4, V domains shown)
VH: QVQLVQSGAEVKKPGASVKVSCKASGYTFTSYGISWVRQAPGQGLEWMGWISAYNGNTNYAQKLQGRVTMTTDTSTSTAYMELRSLRSDDTAVYYCARDGSYSWFDPWGQGTLVTVSS
VL: not shown
B4: H3M6721N (antibody, V domains shown)
VH: EVQLLASGGGLVQPGGSLRLSCAASGFTFSSFAMSWVRQAPGKGLEWVSGISGSGVSTYYADSVKGRFTISRDNSKNTLYLQMNSLRAEDTAAYYCAKEAYKWQPWGQGIRVTVSS
VL: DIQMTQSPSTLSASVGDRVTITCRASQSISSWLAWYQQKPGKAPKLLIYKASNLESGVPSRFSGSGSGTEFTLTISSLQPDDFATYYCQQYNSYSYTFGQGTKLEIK
notes: as for B2
B5: H4H6362P (antibody, V domains shown)
VH: QVQLVESGGGVVQPGRSLRLSCEASGFTFGSYGMHWVRQAPGKGLEWMAVISYDGNSRYSADSVKGRFTISRDNSKNTLYLQMNSLRAEDTALYYCAKENHIAARRPGGLDVWGQGTTVTVSS
VL: DIQMTQSPSSLSASVGDRVTITCRASQGISIYLAWYQQKPGKVPKLLIYAASSLQSGVPSRFSGSGSGTDFTLTISSLQPEDVATYFCQNYNIAPWTLGQGTKVEIK

Assays:
[1] = target: T1, human ASIC1; experiment: cell-based or functional assay
[2] = target: T1, human ASIC1; experiment: FACS titration, 3T3/hASIC1 cells
Description: To perform the FACS binding experiments, adherent cells were collected using 1 mM EDTA in PBS, then washed, and re-suspended in cold PBS containing 5% FBS. For each binding experiment, each anti-ASIC1 antibody ([…] or ND7 cells) was added to 250,000 cells in 500 μL of PBS with 5% FBS. After incubation for 20 minutes at room temperature, a secondary antibody which recognizes human Fc (Cat. No. 109-136-098, Jackson ImmunoResearch Laboratories, Inc., West Grove, Pa.) or mouse Fc (Cat. No. 550826, BD Biosciences, San Jose, Calif.) and is conjugated to allophycocyanin, was then added to the cell mixture at a final concentration of 13.3 nM. After incubating for 20 minutes on ice, the cells were washed and resuspended in PBS containing 5% FBS, then sorted and analyzed on a flow cytometer (FACSCalibur, BD Biosciences, San Jose, Calif.) to determine relative binding by the candidate antibodies to the tested cell lines. Histograms of cells stained with anti-ASIC1 antibodies were compared with those of cells stained with secondary antibody alone. Percentage of ASIC1 signal over secondary antibody alone was calculated using FlowJo software (Tree Star, Ashland, Oreg.).

[3] = target: T1, human ASIC1; experiment: cell-based or functional assay; remark: listed apart in the source
[4] = target: T2, mouse ASIC1a; experiment: cell-based or functional assay
[5] = target: T3, rat ASIC1; experiment: FACS, undifferentiated ND7 cells
From the text: (§1) To further characterize anti-ASIC1 antibodies, their ability to bind either (a) a mouse fibroblast 3T3 cell line stably transfected to overexpress full length human ASIC1 (3T3/hASIC1; amino acids 1-528 of NCBI accession number NP_{—}001086.2 [SEQ ID NO:401]), (b) a 3T3 cell line stably transfected to over express full length mouse ASIC1a (3T3/mASIC1a; amino acids 1-526 of NCBI accession number NP_{—}033727), or (c) a ND7 cell line (ECACC, #92090903) that is a fusion cell line of mouse neuroblastoma and rat dorsal root ganglia that endogenously expresses rat ASIC1, was determined using flow cytometry (FACS). ND7 cells were differentiated by replacing the culture media with low-serum media (0.5% FBS) containing 1 mM dibutyryl-cAMP (Cat. No. sc-201567A, Santa Cruz Biotechnology, Inc., Santa Cruz, Calif.). FACS binding was tested for some antibodies on both undifferentiated ND7 cells and differentiated ND7 cells.
To perform the FACS binding experiments, adherent cells were collected using 1 mM EDTA in PBS, then washed, and re-suspended in cold PBS containing 5% FBS. For each binding experiment, each anti-ASIC1 antibody (at final concentrations of 10 nM of purified antibodies or 3.3 nM for antibody supernatants for binding to 3T3/hASIC1 cells and 5 nM for binding to 3T3/mASIC1a or ND7 cells) was added to 250,000 cells in 500 μL of PBS with 5% FBS. […] After incubating for 20 minutes on ice, the cells were washed and resuspended in PBS containing 5% FBS, then sorted and analyzed on a flow cytometer (FACSCalibur, BD Biosciences, San Jose, Calif.) to determine relative binding by the candidate antibodies to the tested cell lines. […] Percentage of ASIC1 signal over secondary antibody alone was calculated using FlowJo software (Tree Star, Ashland, Oreg.).

[6] = target: T2, mouse ASIC1a; experiment: FACS, 3T3/mASIC1a cells
From the text: as §1
To perform the FACS binding experiments, adherent cells were collected using 1 mM EDTA in PBS, then washed, and re-suspended in cold PBS containing 5% FBS. For each binding experiment, each anti-ASIC1 antibody (at final concentrations of 10 nM of purified antibodies or 3.3 nM for antibody supernatants for binding to 3T3/hASIC1 cells and 5 nM for binding to 3T3/mASIC1a or ND7 cells) was added to 250,000 cells in 500 μL of PBS with 5% FBS. After incubation for 20 minutes at room temperature, a secondary antibody which recognizes human Fc (Cat. No. 109-136-098, Jackson ImmunoResearch Laboratories, Inc., West Grove, Pa.) or mouse Fc (Cat. No. 550826, BD Biosciences, San Jose, Calif.) and is conjugated to allophycocyanin, was then added to the cell mixture at a final concentration of 13.3 nM. After incubating for 20 minutes on ice, the cells were washed and resuspended in PBS containing 5% FBS, then sorted and analyzed on a flow cytometer (FACSCalibur, BD Biosciences, San Jose, Calif.) to determine relative binding by the candidate antibodies to the tested cell lines. Histograms of cells stained with anti-ASIC1 antibodies were compared with those of cells stained with secondary antibody alone. Percentage of ASIC1 signal over secondary antibody alone was calculated using FlowJo software (Tree Star, Ashland, Oreg.).

[7] = target: T1, human ASIC1; experiment: FACS, 3T3/hASIC1 cells
From the text: as §1, with “FACS binding was tested for some antibodies on both undifferentiated ND7 cells and differentiated ND7 cells.” left out
To perform the FACS binding experiments, adherent cells were collected using 1 mM EDTA in PBS, then washed, and re-suspended in cold PBS containing 5% FBS. […] After incubating for 20 minutes on ice, the cells were washed and resuspended in PBS containing 5% FBS, then sorted and analyzed on a flow cytometer (FACSCalibur, BD Biosciences, San Jose, Calif.) to determine relative binding by the candidate antibodies to the tested cell lines. […] Percentage of ASIC1 signal over secondary antibody alone was calculated using FlowJo software (Tree Star, Ashland, Oreg.).

[8] = target: T1, human ASIC1; experiment: cell-based or functional assay; remark: listed apart in the source

Row | Binder | Current inhibition (%) at 100 nM antibody, Q-Patch, pH 6.0 [1] | EC50 [2] | apparent IC50, human ASIC1 current, Q-Patch [3] | apparent IC50, mouse ASIC1 current, Q-Patch [4] | binding result [5] | binding result [6] | binding result [7] | FLIPR Dose Curve, pH 5.0 % Block [8] | FLIPR Dose Curve, pH 5.5 % Block [8] | FLIPR Dose Curve, pH 5.5 IC50 [8]
1 | B1 | 92% | 1.7 nM | ≤ 10 nM | < 25 nM | no binding (tested: 5 nM; gated lower than 1%) |  |  |  |  | 
2 | B2 | 82% | 1.1 nM | ≤ 10 nM | < 25 nM | no binding (tested: 5 nM; gated lower than 1%) | no binding (tested: 5 nM; gated lower than 1%) |  |  |  | 
3 | B3 | 25% |  |  |  |  |  | no binding |  |  | 
4 | B4 | 100% | 0.085 nM | ≤ 10 nM | < 25 nM | no binding (tested: 5 nM; gated lower than 1%) |  |  | 25% | 44% | 0.3 nM
5 | B5 | 29% |  |  |  |  |  | no binding |  |  | 
